{"source": "paper PMC5632138", "about": "(Journal of molecular biology, 2017)", "binders": {"B1": {"name": "27-bp consensus ETS duplex (dsDNA)", "DNA 1": "TCGACGGCCAAGCCGGAAGTGAGTGCC", "DNA 2": "TCGAGGCACTCACTTCCGGCTTGGCCG"}, "B2": {"name": "ETV4^337–436 (DNA-binding domain), biotinylated ligand for biolayer interferometry (domain or fragment, UniProt P43268 337-436, looked up)", "chain": "RRGALQLWQFLVALLDDPTNAHFIAWTGRGMEFKLIEPEEVARLWGIQKNRPAMNYDKLSRSLRYYYEKGIMQKVAGERYVYKFVCEPEALFSLAFPDNQ", "modifications": "biotin (biotinylated; D-biotin added at the induction point)"}, "B3": {"name": "ETV4^337–436 (DNA-binding domain), from pET28 (domain or fragment, UniProt P43268 337-436, looked up)", "chain": "RRGALQLWQFLVALLDDPTNAHFIAWTGRGMEFKLIEPEEVARLWGIQKNRPAMNYDKLSRSLRYYYEKGIMQKVAGERYVYKFVCEPEALFSLAFPDNQ"}}, "key": {"ETV4 WT;MED25 ACID": {"target": "ETV4 WT;MED25 ACID (human?;human, UniProt P43268;Q71SY5 1-484;391-553, |)", "sequence (P43268 whole entry, one chain of several)": "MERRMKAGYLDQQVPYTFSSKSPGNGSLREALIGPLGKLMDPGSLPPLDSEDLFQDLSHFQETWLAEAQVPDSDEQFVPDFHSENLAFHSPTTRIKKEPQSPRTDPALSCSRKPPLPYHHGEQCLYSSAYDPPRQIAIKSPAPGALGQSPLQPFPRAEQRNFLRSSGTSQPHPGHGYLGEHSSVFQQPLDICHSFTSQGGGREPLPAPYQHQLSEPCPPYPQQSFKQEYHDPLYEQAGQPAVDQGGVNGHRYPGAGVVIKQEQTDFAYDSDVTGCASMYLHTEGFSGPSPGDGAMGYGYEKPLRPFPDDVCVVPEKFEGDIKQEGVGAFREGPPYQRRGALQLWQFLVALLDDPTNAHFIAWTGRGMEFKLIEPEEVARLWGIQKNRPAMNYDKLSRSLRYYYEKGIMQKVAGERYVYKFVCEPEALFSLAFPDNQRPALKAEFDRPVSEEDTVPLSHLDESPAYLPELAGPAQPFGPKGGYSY", "assay": "EMSA"}, "ETV4 Phe428Ala/Phe432Ala": {"target": "ETV4 Phe428Ala/Phe432Ala (UniProt P43268 1-484, F428A;F432A)", "sequence (P43268 whole entry F428A/F432A)": "as the sequence (P43268 whole entry, one chain of several) above, with F428A, F432A counted along it", "assay": "EMSA"}, "ETV4 Leu430Ala": {"target": "ETV4 Leu430Ala (UniProt P43268 1-484, L430A)", "sequence (P43268 whole entry L430A)": "as the sequence (P43268 whole entry, one chain of several) above, with L430A counted along it", "assay": "EMSA"}, "[1]": {"target": "T1, MED25 ACID Lys518Ala/Lys519Ala/Lys520Ala (analyte) (human, UniProt Q71SY5 391-553, Lys518Ala | Lys519Ala | Lys520Ala)", "T1 sequence (looked up)": "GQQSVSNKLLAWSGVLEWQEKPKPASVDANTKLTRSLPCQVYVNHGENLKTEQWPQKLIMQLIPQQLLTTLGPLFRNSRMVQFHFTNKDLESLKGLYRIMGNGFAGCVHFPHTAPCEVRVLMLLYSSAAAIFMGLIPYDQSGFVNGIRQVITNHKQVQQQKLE", "assay": "BLI"}, "[2]": {"target": "T2, MED25 ACID Leu514Glu (analyte) (human, UniProt Q71SY5 391-553, Leu514Glu)", "T2 sequence (looked up)": "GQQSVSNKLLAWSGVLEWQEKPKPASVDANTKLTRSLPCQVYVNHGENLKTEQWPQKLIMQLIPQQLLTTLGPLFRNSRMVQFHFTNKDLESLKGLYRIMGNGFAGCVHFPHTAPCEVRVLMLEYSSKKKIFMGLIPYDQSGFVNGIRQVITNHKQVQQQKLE", "assay": "BLI"}, "[3]": {"target": "T3, MED25 ACID Gln430Glu (analyte) (human, UniProt Q71SY5 391-553, Gln430Glu)", "T3 sequence (looked up)": "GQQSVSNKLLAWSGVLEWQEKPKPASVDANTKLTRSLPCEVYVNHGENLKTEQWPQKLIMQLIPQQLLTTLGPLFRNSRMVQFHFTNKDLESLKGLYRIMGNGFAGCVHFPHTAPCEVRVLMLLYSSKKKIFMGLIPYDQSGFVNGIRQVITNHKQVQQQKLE", "assay": "BLI"}, "[4]": {"target": "T4, MED25 ACID Ile521Glu (analyte) (human, UniProt Q71SY5 391-553, Ile521Glu)", "T4 sequence (looked up)": "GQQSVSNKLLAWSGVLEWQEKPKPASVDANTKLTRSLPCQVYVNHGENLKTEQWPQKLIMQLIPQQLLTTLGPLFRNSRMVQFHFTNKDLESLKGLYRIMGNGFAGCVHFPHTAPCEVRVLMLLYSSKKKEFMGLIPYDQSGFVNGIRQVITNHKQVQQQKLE", "assay": "BLI"}, "[5]": {"target": "T5, MED25 ACID Arg466Glu (analyte) (human, UniProt Q71SY5 391-553, Arg466Glu)", "T5 sequence (looked up)": "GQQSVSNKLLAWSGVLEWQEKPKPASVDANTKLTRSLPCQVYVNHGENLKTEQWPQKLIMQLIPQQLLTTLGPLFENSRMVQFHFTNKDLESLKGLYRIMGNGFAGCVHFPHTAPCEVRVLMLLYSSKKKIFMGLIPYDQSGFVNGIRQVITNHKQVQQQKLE", "assay": "BLI"}, "[6]": {"target": "T6, MED25 ACID His474Glu (analyte) (human, UniProt Q71SY5 391-553, His474Glu)", "T6 sequence (looked up)": "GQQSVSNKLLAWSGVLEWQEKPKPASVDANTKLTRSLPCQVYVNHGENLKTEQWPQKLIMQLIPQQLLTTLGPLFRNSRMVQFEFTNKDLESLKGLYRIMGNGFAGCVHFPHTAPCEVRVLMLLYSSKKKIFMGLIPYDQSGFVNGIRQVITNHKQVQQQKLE", "assay": "BLI"}, "[7]": {"target": "T7, MED25 ACID Tyr487Ser (analyte) (human, UniProt Q71SY5 391-553, Tyr487Ser)", "T7 sequence (looked up)": "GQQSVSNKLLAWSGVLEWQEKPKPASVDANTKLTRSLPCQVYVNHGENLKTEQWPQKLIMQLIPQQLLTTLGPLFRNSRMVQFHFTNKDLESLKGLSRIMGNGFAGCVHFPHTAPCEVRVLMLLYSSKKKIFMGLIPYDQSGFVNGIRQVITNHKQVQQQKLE", "assay": "BLI"}, "[8]": {"target": "T8, MED25 ACID Met523Glu (analyte) (human, UniProt Q71SY5 391-553, Met523Glu)", "T8 sequence (looked up)": "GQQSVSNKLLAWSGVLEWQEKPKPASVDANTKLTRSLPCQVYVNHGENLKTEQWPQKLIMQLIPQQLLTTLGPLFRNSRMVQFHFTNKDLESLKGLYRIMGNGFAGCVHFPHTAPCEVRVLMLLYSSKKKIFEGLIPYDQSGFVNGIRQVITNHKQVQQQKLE", "assay": "BLI"}, "[9]": {"target": "T9, MED25 ACID (residues 391–553), from pET28 (human, UniProt Q71SY5 391-553)", "T9 sequence (looked up)": "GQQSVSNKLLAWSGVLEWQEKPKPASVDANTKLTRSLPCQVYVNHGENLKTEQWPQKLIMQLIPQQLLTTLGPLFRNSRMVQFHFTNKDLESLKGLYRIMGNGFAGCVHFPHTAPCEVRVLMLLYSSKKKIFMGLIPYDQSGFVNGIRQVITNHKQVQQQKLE", "assay": "NMR titration"}}, "data": [{"binder": "B1", "values": [{"measurement": "Kd", "setting": "ETV4 WT;MED25 ACID", "result": "2.1 ± 0.5", "unit": "nM"}, {"measurement": "Kd", "setting": "ETV4 Phe428Ala/Phe432Ala", "result": "3.7 ± 0.8", "unit": "nM"}, {"measurement": "Kd", "setting": "ETV4 Leu430Ala", "result": "1.9 ± 0.4", "unit": "nM"}]}, {"binder": "B2", "values": [{"measurement": "binding result", "setting": "[1]", "result": "binds"}, {"measurement": "binding result", "setting": "[2]", "result": "binds"}, {"measurement": "binding result", "setting": "[3]", "result": "binds"}, {"measurement": "binding result", "setting": "[4]", "result": "binds"}, {"measurement": "binding result", "setting": "[5]", "result": "binds"}, {"measurement": "binding result", "setting": "[6]", "result": "binds"}, {"measurement": "binding result", "setting": "[7]", "result": "binds"}, {"measurement": "binding result", "setting": "[8]", "result": "binds"}]}, {"binder": "B3", "values": [{"measurement": "binding result", "setting": "[9]", "result": "binds"}]}]}
